As a reminder, the Kd is the free concentration of one partner at which half of the binding sites on the other are occupied at equilibrium, for simple one-to-one binding.

Bounds are passed on as bounds.

This assay addresses Neonatal Fc receptor (FcRn), soluble form (UniProt P55899). As to the kind of experiment: mass photometry (single-molecule counting of species by mass). The conditions noted are these: not stated (in the SI).
Chain of UniProt P55899 (P55899 whole entry): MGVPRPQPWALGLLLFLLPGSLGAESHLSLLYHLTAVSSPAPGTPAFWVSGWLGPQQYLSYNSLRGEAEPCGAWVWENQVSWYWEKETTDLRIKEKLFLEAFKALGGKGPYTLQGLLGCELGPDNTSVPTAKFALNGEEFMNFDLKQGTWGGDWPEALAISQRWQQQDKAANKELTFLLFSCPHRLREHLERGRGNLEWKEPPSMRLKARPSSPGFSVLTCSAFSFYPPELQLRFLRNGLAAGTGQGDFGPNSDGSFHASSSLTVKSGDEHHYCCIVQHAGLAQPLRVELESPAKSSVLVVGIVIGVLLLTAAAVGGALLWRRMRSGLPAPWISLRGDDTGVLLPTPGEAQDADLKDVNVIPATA

For the substance “Neonatal Fc receptor (FcRn), soluble form”, the Kd is 44 ± 9 nM (pH 5, pH 5, 5.5, 6 and 7); 31 ± 11 nM (pH 5, pH 5, 5.5 and 6); 171 ± 19 nM (pH 5.5, pH 5, 5.5, 6 and 7); above 200 nM (pH 5.5, pH 5, 5.5 and 6); above 200 nM (pH 6, pH 5, 5.5 and 6).

In the case of “Trastuzumab (Herceptin), IgG1 monoclonal antibody, called 'IgG' in the article”, the Kd runs as follows: (pH 5, pH 5, 5.5, 6 and 7) 59 ± 8 nM; (pH 5.5, pH 5, 5.5, 6 and 7) 225 ± 20 nM; (pH 6, pH 5, 5.5, 6 and 7) above 200 nM; (pH 7, pH 5, 5.5, 6 and 7) above 200 nM.

Regarding “Trastuzumab (Herceptin), IgG1 monoclonal antibody, called 'IgG' in the article + Neonatal Fc receptor (FcRn), soluble form”, the dissociation constant (Kd) is 6.6 ± 0.6 nM (pH 5, pH 5, 5.5, 6 and 7); 3.9 ± 1.5 nM (pH 5.5, pH 5, 5.5, 6 and 7).

(Values after publication PMC7318626.)
